The values below come from patent US6083914.

For test [1], the target named is platelets (human, fresh washed). The test can be described thus: competition: soluble peptide against divalent cation-independent adhesion of platelets to coated 45 kDa.
Test [2] shares this target. The test can be described thus: competition: 300 uM soluble peptide against platelet adhesion to coated FN in the presence of Ca+2.

Bounds are passed on as bounds.

B1: FN312-326 (peptide)
peptide: TAVTQTYGGNSNGEP
Consider B1, for which the ED50 in test [1] was 68 µM. Also, in test [2], the percent reduction of platelet adhesion to FN amounted to 50%.

B2: FN316-333 (peptide)
peptide: QTYGGNSNGEPSVLPFTY
Consider B2, for which the ED50 in test [1] was above 2000 µM.

B3: FN312-323 (peptide)
peptide: TAVTQTYGGNSN
As for B3, in test [1], the ED50 was 712 µM and the fold reduction of apparent affinity against FN312-326 was found to be 10 fold.

B4: FN312-318 (peptide)
peptide: TAVTQTY
In turn, B4 had an ED50 in test [1] above 2000 µM.
